Consider two molecules from article PMC11091976, “Shorter Peptide Nucleic Acid Probes Improve Affibody-Mediated Peptide Nucleic Acid-Based Pretargeting” (ACS Pharmacology & Translational Science, 2024).

One may read the Tm as the temperature at the midpoint of the melting transition.

Marks after values point to notes of the source that are not given here.

In data set [1] the test system is HER2 xenograft mouse model. The note with it: in vivo; cited from earlier work. The method, then: In our recent study,[29] we introduced a second-generation of pretargeting probes featuring a common 15-mer affibody-PNA conjugate, ZHER2:343-HP15, and three complementary secondary probes of varying lengths: a 9-mer (HP16), a 12-mer (HP17), and a 15-mer (HP18). […] At 4 h postinjection, there were no significant differences in the tumor-to-kidney ratios among the three different pretargeting groups.

For data set [2] the following is noted: cited from earlier work. As to the method: Table 4 ^177Lu-Labeling of PNA-Based Probes and In Vitro Stability | column: stability in PBS, 37 °C, 1 h; stability (×500 EDTA), 37 °C, 1 h
Data set [3] is described as follows: Solubility of secondary probes in labeling buffer. It is filed as physicochemical. The note with it: 0.2 M NH4Ac, pH 5.5, 25 °C. The method, then:
However, as we moved to shorter PNA oligomers, solubility saw a substantial, nonlinear increase. […] For example, at 25 °C, the maximum soluble concentration of HP17 (12-mer) was around 6 μM. […]
pH 5.5 at 25°C. Dilution series of HPLC-purified and lyophilized secondary probes (1, 3, 6, 9, 13, 26, 39, 52 and 65 µM) for […]
samples were heated at 95°C for five minutes and concentration of the soluble fraction was determined by UV absorption at 260 nm before (grey bars), and after (black bars) an 18-hour static incubation at 25°C. Duplicates were prepared of all samples and the data is presented as the mean ± SD. The maximum soluble concentration of each probe, indicated in panels A-E as a dotted line, was defined as the highest concentration at which at least 95% is still in the soluble fraction after an 18-hour incubation at 25°C. PNA-aggregates are temperature-labile, as exemplified in panel C for 82 µM HP17.
After an 18-hour incubation 25°C, 6 µM is left in the soluble fraction (left black bar) but heating the sample at 95 °C for five minutes completely redissolved HP17 aggregates into solution (right black bar).
(1 picture or pasted object on this page, not shown here)
Supplementary Material and methods
Solubility of secondary probes
HPLC-purified and freeze-dried secondary probes were resuspended in 10 mM NaAc, pH 3.5-3.6 and freeze-dried in smaller aliquots. The secondary probes were re-dissolved in 0.2 M NH4Ac, pH 5.5, and the samples were heated at 95 °C for five minutes to ensure complete dissolvement. Dilution series of secondary probes (1, 3, 6, 9, 13, 26, 39, 52 and 65 μM) for […]
NH4Ac, pH 5.5. The samples were then left for an 18-hour static incubation at 25 C, before being centrifugated at 21,100 x g for 5 minutes on a standard benchtop centrifuge (Eppendorf). The supernatants were transferred to fresh 1.5 mL Eppendorf-tubes, and the […]

Data set [4] relates to HP12. The data set is described as follows: UV melting of PNA:PNA duplex with primary probe HP12. It counts as physicochemical. The note with it: UV 260 nm, 20-95 °C at 1 °C/min, 5 μM each probe, 10 mM phosphate buffer, 10 mM KCl, pH 7.4. As to the method: The melting temperatures of secondary probes after duplex formation with primary probes were also measured by monitoring the absorbance at 260 nm as a function of temperature (see Figure S23). All probe pairs had melting temperatures well above 37 °C (body temperature) and ranged from 51 °C for the HP6:HP19 pair with 6 complementary bases to 82 °C for the previously studied HP15:HP18 pair with 15 complementary bases (see Figure 3B and Table 2). […] This secondary structure is typically adopted by antiparallel and L-amino acid-modified PNA–PNA duplexes at neutral pH.[49]
Figure S23: Normalized temperature melting profiles from 20–95°C for different primary and secondary probe pairs. UV melting curves at 260 nm. (A) HP15 (15-mer) toward secondary 15-, 12- and 9-mers. (B) HP12 (12-mer) toward secondary 12-, 9-, 8-, 7- and 6-mers. (C) HP9 (9-mer) toward secondary 9-, 8-, 7- and 6-mers. (D) HP6 (6-mer) toward secondary 6-mer.
Concentrations of duplexes in A–D are 5 μM in 10 mM […] with 10 mM KCl at pH 7.4.
(also on this page, place not known: Fraction melted Fraction meltedFraction melted Fraction melted) […]
Supplementary Material and methods […]
Biophysical characterization of PNA:PNA duplexes using CD Spectroscopy and […]
Circular dichroism (CD) and UV melts of PNA:PNA duplexes were measured on a CD spectrometer (Applied Photophysics, Leatherhead, UK) with Peltier temperature control and an external temperature probe. RP-HPLC purified and lyophilized PNA probes were dissolved in 10 mM phosphate buffer with 10 mM KCl at pH 7.4. Samples contained both primary and complementary secondary PNA probes at a final concentration of 5 µM for each probe. These samples were initially heated to 95°C for five minutes, allowed to cool to room temperature, and then transferred to a quartz cuvette with a 1.0 cm path length. A temperature probe was inserted into the solution through the cuvette's rubber cap. […]
from 20°C to 95°C with a 1°C/min temperature gradient. Simultaneously, the UV absorbance at 260 nm was recorded as a function of temperature. Fraction melted data was calculated […]
Fraction melted = 1 ― UVds― UVss , where UVss and UVds are the UV absorbances at 95°C and 20°C, respectively. The melting temperature (Tm) was determined as the maximum of the first derivative of the melting curve and was computed using the Global 3 analysis software (Applied Photophysics, […]
CD spectra in the range of 200–300 nm were recorded for all hybridized PNA:PNA pairs at 20°C before and after the UV melting experiments. All CD spectra were baseline subtracted and presented as an average of five scans.

Regarding `NC(=O)[C@H](Cc1ccc(O)cc1)NC(=O)[C@H](CCC(=O)O)NC(=O)[C@H](CCC(=O)O)NC(=O)CN(CCNC(=O)CN(CCNC(=O)CN(CCNC(=O)CN(CCNC(=O)CN(CCNC(=O)CN(CCNC(=O)CN(CCNC(=O)CN(CCNC(=O)CN(CCNC(=O)[C@H](CO)NC(=O)[C@H](CO)NC(=O)COCCOCCNC(=O)CN1CCN(CC(=O)O)CCN(CC(=O)O)CCN(CC(=O)O)CC1)C(=O)Cn1cnc2c(N)ncnc21)C(=O)Cn1cnc2c(N)ncnc21)C(=O)Cn1ccc(N)nc1=O)C(=O)Cn1cnc2c(N)ncnc21)C(=O)Cn1ccc(N)nc1=O)C(=O)Cn1ccc(N)nc1=O)C(=O)Cn1cnc2c(N)ncnc21)C(=O)Cn1cnc2c(=O)[nH]c(N)nc21)C(=O)Cn1cnc2c(=O)[nH]c(N)nc21` [[^177Lu]Lu-HP16, metal not drawn], the kidney uptake in data set [1] is reported as 6 ± 1 % ID/g. For the same molecule, in data set [2], the “stability (×500 EDTA), 37 °C, 1 h” value is 100 ± 0 ^a and the “stability in PBS, 37 °C, 1 h” value is 100 ± 0 ^a.

As to “DOTA-AEEA-SS-aacaccagg-EEY-NH2 [HP16, 9-mer secondary PNA probe with DOTA]”, in data set [3], the “increase in solubility compared to the 15-mer HP18” value is given as ~10 fold. The maximum soluble concentration in data set [3] (heated 95 °C 5 min, 18-h static incubation, centrifugation, UV 260 nm of supernatant, highest concentration with at least 95% still soluble, duplicates) was 26 µM. In data set [4], the Tm amounted to 68 °C.
